The record followed here is patent US20040038304A1 (CATALENT PHARMA SOLUTIONS, published 2004).

This assay addresses T1, CEA antigen (UniProt P06731 35-685, limits assumed).
T1 sequence (looked up): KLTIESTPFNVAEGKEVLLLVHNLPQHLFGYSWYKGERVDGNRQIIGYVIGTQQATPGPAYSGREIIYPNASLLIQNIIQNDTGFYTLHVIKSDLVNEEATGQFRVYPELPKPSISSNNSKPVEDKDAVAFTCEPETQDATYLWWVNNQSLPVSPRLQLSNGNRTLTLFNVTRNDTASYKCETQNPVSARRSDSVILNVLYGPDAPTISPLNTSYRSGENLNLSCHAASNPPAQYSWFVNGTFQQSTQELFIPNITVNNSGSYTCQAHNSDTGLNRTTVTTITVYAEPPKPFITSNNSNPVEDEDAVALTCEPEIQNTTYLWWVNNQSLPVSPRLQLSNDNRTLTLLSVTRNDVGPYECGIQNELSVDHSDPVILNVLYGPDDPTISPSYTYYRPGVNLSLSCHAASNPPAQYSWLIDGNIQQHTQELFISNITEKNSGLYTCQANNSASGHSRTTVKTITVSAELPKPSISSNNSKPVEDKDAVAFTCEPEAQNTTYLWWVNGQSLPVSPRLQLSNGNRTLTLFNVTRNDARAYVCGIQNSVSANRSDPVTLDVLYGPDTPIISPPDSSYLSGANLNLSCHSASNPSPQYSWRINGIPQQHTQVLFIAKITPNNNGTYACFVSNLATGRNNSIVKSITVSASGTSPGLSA
Description: ELISA, plates coated with CEA antigen; MN14 as the standard. On the procedure: Single colonies were made and from an initial 50 clones, 38 viable clones were obtained. The supernatants of these clones were analyzed for human kappa light chain, human Fc (IgG) and CEA antigen binding. For the huLC and huFc assay, the plates were coated with anti-huFab, for the CEA binding assay, the plates were coated with CEA antigen. All values are in ng/ml. Purified MN14 was used as a standard.

B1: MN14 antibody (antibody, V domains shown)
VH: EVQLVESGGGVVQPGRSLRLSCSASGFDFTTYWMSWVRQAPGKGLEWIGEIHPDSSTINYAPSLKDRFTISRDNAKNTLFLQMDSLRPEDTGVYFCASLYFGFPWFAYWGQGTPVTVSS
VL: DIQLTQSPSSLSASVGDRVTITCKASQDVGTSVAWYQQKPGKAPKLLIYWTSTRHTGVPSRFSGSGSGTDFTFTISSLQPEDIATYYCQQYSLYRSFGQGTKVEIKR
notes: Purified MN14 used as the standard of the assays; also called Purified MN14
With B1, the binding result is given as “binds”.
